Laboratory results: US9926369B2, “Methods for treating hepatocellular cancer by administering an anti-Ang-2 antibody” (Regeneron Pharmaceuticals, Inc., priority 2009, dated 2018)

Key:
[1] = biological target: T1, Human Ang-2FD-hFc binding to hTie-2-mFc (Homo sapiens, UniProt O15123); experiment: ELISA blocking of human Ang-2FD-hFc binding to hTie-2-mFc; type: biochemical; details: 16.67 nM antibody; 2 nM Ang-2FD-hFc
T1 sequence (O15123 282-496): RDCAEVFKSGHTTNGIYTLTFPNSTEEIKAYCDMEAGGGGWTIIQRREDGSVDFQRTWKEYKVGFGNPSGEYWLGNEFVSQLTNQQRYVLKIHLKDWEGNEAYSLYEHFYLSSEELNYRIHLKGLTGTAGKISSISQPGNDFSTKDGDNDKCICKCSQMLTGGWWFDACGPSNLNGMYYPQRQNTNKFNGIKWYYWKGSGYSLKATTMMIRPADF
Procedure: Tie-2 is a natural receptor for Ang-2. Anti-Ang-2 antibodies were tested for their ability to block Ang-2 binding to human Tie-2 (hTie-2). hTie-2-mFc (a chimeric construct consisting of human Tie-2 conjugated to mouse IgG; SEQ ID NO:525) was coated onto 96-well plates at a concentration of 2 μg/ml and incubated overnight followed by washing four times in wash buffer (PBS with 0.05% Tween-20). The plate was then blocked with PBS (Irvine Scientific, Santa Ana, Calif.) containing 0.5% BSA (Sigma-Aldrich Corp., St. Louis, Mo.) for one hour at room temperature. In a separate plate, purified anti-Ang-2 antibodies, at a starting concentration of 50 nM, were serially diluted by a factor of three across the plate. Human, mouse or monkey Ang-2FD protein conjugated to human IgG (Ang-2FD-hFc) were added to final concentrations of 2 nM, 8 nM, or 2 nM respectively and incubated for one hour at room temperature. The antibody/Ang-2FD-Fc mixture was then added to the plate containing hTie-2-mFc and incubated for one hour at room temperature. Detection of Ang-2FD-hFc bound to hTie-2-mFc protein was determined with Horse-Radish Peroxidase (HRP) conjugated to a-human IgG antibody (Jackson Immuno Research Lab, West Grove, Pa.) and developed by standard colorimetric response using tetramethylbenzidine (TMB) substrate (BD Biosciences, San Jose, Calif.). Absorbance was read at OD450 for 0.1 sec.

[2] = test system: Tie-2 phosphorylation (Ang-2-mediated) in HUVECs; experiment: Inhibition of Ang-2-mediated Tie-2 phosphorylation in FOXO1-adenovirus infected HUVECs; type: cell-based, human; details: antibody 0.5 μg/ml
Procedure: Further, the inventors have shown that infection of HUVECs with an adenovirus encoding FOXO1 results in expression and secretion of Ang-2, followed by activation of Tie-2 phosphorylation (Daly et al. 2006 PNAS 103:15491).
Anti-Ang-2 antibodies were tested for their ability to inhibit Tie-2 phosphorylation. Briefly, 7×10^5 HUVECs (Vec Technologies, Rensselaer, N.Y.) were plated in 6 cm cell culture dishes in 3.5 ml of MCDB131 Complete medium (Vec Technologies, Rensselaer, N.Y.). The following day, the cells were washed with Opti-MEM (Invitrogen Corp., Carlsbad, Calif.) and fed with 2 ml of Opti-MEM. […] Cells were then washed with MCDB131 and fed with 2 ml of MCDB131 containing anti-Ang-2 antibodies at a concentration of 0.5 μg/ml. At twenty hours post infection, cells were lysed and subjected to Tie-2 immunoprecipitation as described by Daly et al., Proc. Natl. Acad. Sci. USA 103:15491-15496 (2006). Immunoglobulin was collected on protein A/G beads (Santa Cruz Biotechnology, Santa Cruz, Calif.) for one hour. […] Signals were detected using HRP-conjugated secondary antibodies and ECL reagents (GE Healthcare, Piscataway, N.J.). X-Ray films were scanned and the phospho-Tie-2 and Tie-2 signals were quantified using ImageJ software. […]

[3] = test system: COLO 205 tumor vessel perfusion; experiment: Tumor perfusion by contrast-enhanced micro-ultrasound, COLO 205 tumors; type: in vivo, mice; details: treated for 24 hrs
Procedure: To determine whether the combination of H1H685P+VEGF Trap has a greater effect on tumor vessel function than the single agents, a micro-ultrasound (VisualSonics' Vevo 770 imaging system) was used to assess changes in tumor perfusion. COLO 205 tumors were grown to ˜125 mm^3 and mice were then treated for 24 hrs with H1H685P, VEGF Trap or the combination of both agents. Following treatment, tumor vessel perfusion was determined based on contrast-enhanced micro-ultrasound 2D image acquisition and analysis of a “wash-in” curve, which represents the amount of contrast agent entering the tumor. Average (mean+/−standard deviation) tumor perfusion was calculated for each group. Percent decrease was calculated from comparison to the Fc control group.

hAng-2FD-mFc S-417-I = biological target: T2, hAng-2FD-mFc S-417-I (Homo sapiens, UniProt O15123, S417I); experiment: Ang-2FD-mFc point mutant binding experiment (SPR), S-417-I; details: S-417-I mutant captured; antibody/peptibody at 100 nM; 25° C.
T2 construct: made in house
Excerpt: (§1) To further characterize binding between hAng2 and anti-hAng2 mAbs of the invention, seven variant hAng2-FD-mFc proteins were generated, each containing a single point mutation. Amino acids selected for mutation were based on the difference in sequence between hAng-2 and hAng-1 in the region that interacts with hTie-2 (FIG. 1). In particular, amino acids within the fibrinogen-like domain (FD) of Ang-2 which are believed to interact with Tie-2 based on crystal structure analysis, but which differ from the corresponding amino acid in Ang-1, were individually mutated to the corresponding hAng-1 residue. The results of this example indicate the amino acid residues of hAng-2 with which the Ang-2 preferential binding antibodies interact.
(§2) In this experiment, each of the seven hAng-2FD-mFc mutant proteins were captured (˜147-283 RU) on an anti-mouse-Fc surface created through direct chemical coupling to a BIACORE™ chip. Then each Ang-2 antibody (or peptibody, as the case may be) at 100 nM was injected over the captured mFc-tagged hAng-2FD protein surface at a flowrate of 50 μl/min for 180 sec, and the dissociation of variant hAng2-FD-mFc and antibody was monitored in real time for 20 min at 25° C.

hAng-2FD-mFc F-469-L = biological target: T3, hAng-2FD-mFc F-469-L (Homo sapiens, UniProt O15123, F469L); experiment: Ang-2FD-mFc point mutant binding experiment (SPR), F-469-L; details: F-469-L mutant captured; antibody/peptibody at 100 nM; 25° C.
T3 construct: made in house
Excerpt: as §1, §2

hAng-2FD-mFc S-480-P = biological target: T4, hAng-2FD-mFc S-480-P (Homo sapiens, UniProt O15123, S480P); experiment: Ang-2FD-mFc point mutant binding experiment (SPR), S-480-P; details: S-480-P mutant captured; antibody/peptibody at 100 nM; 25° C.
T4 construct: made in house
Excerpt: as §1, §2

T2 sequence (O15123 with tags, fused parts or gaps S417I): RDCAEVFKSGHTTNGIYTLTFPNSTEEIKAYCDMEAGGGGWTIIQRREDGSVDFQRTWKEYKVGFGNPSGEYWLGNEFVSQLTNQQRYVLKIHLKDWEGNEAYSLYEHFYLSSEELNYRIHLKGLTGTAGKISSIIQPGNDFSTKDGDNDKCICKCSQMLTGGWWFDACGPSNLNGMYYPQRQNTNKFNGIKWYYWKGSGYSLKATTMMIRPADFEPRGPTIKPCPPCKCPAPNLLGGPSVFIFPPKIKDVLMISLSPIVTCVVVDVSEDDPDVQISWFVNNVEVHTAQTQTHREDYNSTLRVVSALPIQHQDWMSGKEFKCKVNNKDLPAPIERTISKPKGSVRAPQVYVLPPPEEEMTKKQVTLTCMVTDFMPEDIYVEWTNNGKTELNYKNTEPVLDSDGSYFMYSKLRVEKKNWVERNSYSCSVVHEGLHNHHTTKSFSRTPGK
T3 sequence (O15123 with tags, fused parts or gaps F469L): as the sequence (O15123 with tags, fused parts or gaps S417I) above, with I136S, F188L counted along it
T4 sequence (O15123 with tags, fused parts or gaps S480P): as the sequence (O15123 with tags, fused parts or gaps S417I) above, with I136S, S199P counted along it

H1H685P: human anti-Ang-2 antibody, HCVR/LCVR SEQ ID NOs 18/20; also referred to as mAb1 [Antibody H1H685P]
Percent Blocking of Ang-2FD Binding to Tie-2, Human Ang-2FD-hFc [1]: 93.8% | Inhibition of Tie-2 phosphorylation [2]: +++ (75-100%) | Inhibition of Tie-2 phosphorylation (in words) [2]: Especially robust inhibition | Relative Tumor Perfusion ([3]; mean ± SD): 6.32 ± 2.81 | % Decrease in Tumor Perfusion ([3]; vs Fc control): 22% | Kd (hAng-2FD-mFc S-417-I): 0.0305 nM | RU (hAng-2FD-mFc S-417-I): 127.65 RU | Kd (hAng-2FD-mFc F-469-L): 13.8 nM | RU (hAng-2FD-mFc F-469-L): 101.16 RU | Kd (hAng-2FD-mFc S-480-P): 0.205 nM | RU (hAng-2FD-mFc S-480-P): 161.13 RU
